Reference: patent publication US20030199671A1, “Binding molecules for Fc-region polypeptides” (priority 2001, published 2003)
Where two headings read alike, the source gives them in different places. Non-standard residues stand in square brackets, D forms with d. Nle = CCCC[C@H](N)C(=O)O

What was measured:
Format in all cases: binding
[1] = molecular target: T1, human IgG1 (Homo sapiens, UniProt P01857)
T1 construct: all human subtypes derived from myeloma patients; purchased Calbiochem 400120; host or cells: myeloma patients
Experimental: (§1) In addition, the following targets, all unfractionated IgGs, were also evaluated with selected immobilized peptides for species specificity characterization in a similar format: human IgG, goat IgG, bovine IgG, and mouse IgG (Sigma, product nos. I4506, I5256, I5506, and I15381, respectively). In addition, 10 μl aliquots of hydrolyzed NHS-activated Sepharose 4 Fast Flow (Amersham Pharmacia Biotech, product no. 17-0906-01) and immobilized recombinant Protein A (RepliGen Corp., product no. IPA-400) were also assayed as negative and positive controls. IgG targets were diluted into 10 mM phosphate buffer containing 150 mM NaCl and 0.01% Tween 20, pH 7.2 (PBST) or 50 mM Tris buffer containing, 150 mM NaCl and 0.01% Tween-20, pH 7.5 (TBST). Batch (static) binding and elution studies were conducted in a 96-well assay filterplate (Millipore MultiScreen-HV, with 0.45 μm Durapore membrane, product no. MAHVN4510). The target was allowed to incubate with the resin for 1-1.5 hours with shaking at room temperature. Unbound target was collected by centrifugation of samples from the assay plate directly into a low-UV absorbing 96-well collection plate (Costar, product no. 3635 or Greiner, product no. 655801). The unbound target was then quantitated by reading the absorbance at 280 nm (normalized to 1 cm pathlength, 1.4 mg/ml A280 extinction coefficient) of the collection plate on a microplate spectrophotometer (Molecular Devices Corp., SPECTRAmax PLUS) against a buffer blank.
(§2) The percentage bound target was determined by subtracting the mass determined as unbound from the corresponding condition's control values (control non-filtered added directly to the collection plate and/or the negative control). The assay plate was washed (3×) with 200 μl of binding buffer by vacuum filtration followed by addition of 100 μl of various elution conditions (e.g.: 0.1 M sodium bicarbonate buffer, pH 8.5 and/or 0.1 M sodium citrate buffer, pH 4.0). After a 30-60 minute incubation with shaking at room temperature, the eluted target was collected by centrifugation of the assay plate into another collection plate and quantitated in a similar manner. Percent elution of total load was then determined to characterize elution recovery efficiency under various conditions. The assay plate was then washed (3×) with 200 μl of binding buffer by vacuum filtration followed by addition of a resin cleaning condition (e.g., 0.1M CAPS buffer (3-[Cyclohexylamino]-1-propane-sulfonic acid), pH 11.5, to regenerate the resin for re-use. Percentage mass balance determination was calculated to be 90-100% on average.

[2] = molecular target: T2, human IgG2 (Homo sapiens, UniProt P01859)
T2 construct: all human subtypes derived from myeloma patients; purchased Calbiochem 400122; host or cells: myeloma patients
Experimental: as §1, §2

[3] = system: human IgG
Experimental: as §1, §2

[4] = molecular target: IgG3 (Homo sapiens, UniProt P01860); parameters: all human subtypes derived from myeloma patients; purchased Calbiochem 400124; host or cells: myeloma patients
Experimental: as §1, §2

[5] = molecular target: IgG4 (Homo sapiens, UniProt P01861); parameters: all human subtypes derived from myeloma patients; purchased Calbiochem 400126; host or cells: myeloma patients
Experimental: as §1, §2

[6] = peptide immobilized on NHS activated sepharose 4 fast flow, target ligand density 2.0 μmole/ml, batch filterplate, hIgG1
[7] = peptide immobilized on NHS activated sepharose 4 fast flow, target ligand density 2.0 μmole/ml, batch filterplate, hIgG2
[8] = peptide immobilized on NHS activated sepharose 4 fast flow, target ligand density 2.0 μmole/ml, batch filterplate, hIgG
[9] = peptide immobilized on NHS activated sepharose 4 fast flow, target ligand density 2.0 μmole/ml, batch filterplate, hIgG3
[10] = peptide immobilized on NHS activated sepharose 4 fast flow, target ligand density 2.0 μmole/ml, batch filterplate, hIgG4
[11] = Table 20, average ligand density 1.9 μmole/ml

T2 sequence (P01859 1-326 isoform P01859-1): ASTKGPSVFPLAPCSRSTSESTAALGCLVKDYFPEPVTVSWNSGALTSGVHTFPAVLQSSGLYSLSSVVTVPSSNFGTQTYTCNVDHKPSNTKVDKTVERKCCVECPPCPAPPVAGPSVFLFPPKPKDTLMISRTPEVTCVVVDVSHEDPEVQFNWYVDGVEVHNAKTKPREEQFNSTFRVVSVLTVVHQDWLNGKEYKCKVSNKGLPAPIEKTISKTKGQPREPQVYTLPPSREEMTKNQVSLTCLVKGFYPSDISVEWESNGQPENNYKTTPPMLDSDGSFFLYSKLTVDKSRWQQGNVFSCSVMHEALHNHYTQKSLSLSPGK
IgG4, sequence (P01861 1-327 isoform P01861-1): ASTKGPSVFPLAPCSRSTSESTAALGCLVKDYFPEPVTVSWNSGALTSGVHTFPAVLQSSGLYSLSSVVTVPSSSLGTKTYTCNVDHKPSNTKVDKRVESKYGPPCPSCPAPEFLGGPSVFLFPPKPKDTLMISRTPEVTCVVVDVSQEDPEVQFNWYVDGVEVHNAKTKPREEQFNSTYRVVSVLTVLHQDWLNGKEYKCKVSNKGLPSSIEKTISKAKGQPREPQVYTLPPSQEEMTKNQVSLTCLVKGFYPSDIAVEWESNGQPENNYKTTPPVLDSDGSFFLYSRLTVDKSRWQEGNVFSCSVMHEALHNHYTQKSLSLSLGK
T1 sequence (P01857 1-330 isoform P01857-1): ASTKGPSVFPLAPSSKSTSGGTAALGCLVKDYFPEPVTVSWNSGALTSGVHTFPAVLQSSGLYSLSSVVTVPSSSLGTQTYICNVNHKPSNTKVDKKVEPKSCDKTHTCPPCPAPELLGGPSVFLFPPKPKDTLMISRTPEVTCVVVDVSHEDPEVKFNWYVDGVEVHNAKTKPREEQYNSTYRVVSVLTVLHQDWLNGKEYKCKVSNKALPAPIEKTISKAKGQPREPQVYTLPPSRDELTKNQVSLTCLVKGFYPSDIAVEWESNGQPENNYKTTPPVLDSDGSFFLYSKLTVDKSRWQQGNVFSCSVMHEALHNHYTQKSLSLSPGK
IgG3, sequence (P01860 1-377 isoform P01860-1): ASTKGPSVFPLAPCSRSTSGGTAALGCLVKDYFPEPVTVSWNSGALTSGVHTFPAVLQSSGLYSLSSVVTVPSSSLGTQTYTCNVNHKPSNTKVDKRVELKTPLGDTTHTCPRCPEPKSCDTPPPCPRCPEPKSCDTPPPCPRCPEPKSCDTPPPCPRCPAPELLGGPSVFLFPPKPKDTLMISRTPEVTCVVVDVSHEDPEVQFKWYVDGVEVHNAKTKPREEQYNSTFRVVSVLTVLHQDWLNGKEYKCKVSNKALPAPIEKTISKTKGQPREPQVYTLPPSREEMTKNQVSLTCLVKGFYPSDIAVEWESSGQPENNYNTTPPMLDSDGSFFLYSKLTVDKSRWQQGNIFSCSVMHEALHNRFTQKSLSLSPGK

Batch Binding (% Capture of Total Load) hIgG1 [1, 6] [%] | Batch Binding (% Capture of Total Load) hIgG2 [2, 7] [%] | Batch Binding (% Capture of Total Load) hIgG [3, 8] [%] | Batch Binding (% Capture of Total Load) hIgG3 [4, 9] [%] | Batch Binding (% Capture of Total Load) hIgG4 [5, 10] [%] | Batch Binding (% Capture of Total Load) hIgG1 [1, 11] [%] | Batch Binding (% Capture of Total Load) hIgG2 [2, 11] [%] | Batch Binding (% Capture of Total Load) hIgG [3, 11] [%] | Batch Binding (% Capture of Total Load) hIgG3 [4, 11] [%] | Batch Binding (% Capture of Total Load) hIgG4 [5, 11] [%] | Substance | further results
74 | 63 | 66 | 0 | 42 | – | – | – | – | – | Ac-VCSRDWSGALVWCAGHEPGPEGGGK-NH2 (not fully specified (bridges); printed as Ac-VCSRDWSGALVWCAGHEPGPEGGGK-NH2; cysteine pairing not given here) [DX1145] | –
88 | 83 | 81 | 0 | 55 | – | – | – | – | – | Ac-TCSRDWSGALVWCAGHEPGPEGGGK-NH2 (not fully specified (bridges); printed as Ac-TCSRDWSGALVWCAGHEPGPEGGGK-NH2; cysteine pairing not given here) [DX1143] | –
66 | 55 | 57 | 0 | 39 | – | – | – | – | – | Ac-ACSRDWSGALVWCAGHEPGPEGGGK-NH2 (not fully specified (bridges); printed as Ac-ACSRDWSGALVWCAGHEPGPEGGGK-NH2; cysteine pairing not given here) [DX1142] | –
– | – | – | – | – | – | – | – | – | – | Ac-GDWGECTVTSYGELIWCGGLEPGPEGGGK-NH2 (not fully specified (bridges); printed as Ac-GDWGECTVTSYGELIWCGGLEPGPEGGGK-NH2; cysteine pairing not given here) [DX1070] | hIgG1 elution pH 3.0 (% of Total Load) ([1]; Table 13): 22%; hIgG2 elution pH 3.0 (% of Total Load) ([2]; Table 13): 42%; % IgG Capture - Batch Binding, Human IgG ([3]; Table 14, average ligand density 1.8 μM/ml): 91%; hIgG4 elution pH 3.0 (% of Total Load) ([5]; Table 13): 14%
17 | 9 | 21 | 0 | 2 | – | – | – | – | – | Ac-ERACSRDWSGALVWCAGHEPGPEGGGK-NH2 (not fully specified (bridges); printed as Ac-ERACSRDWSGALVWCAGHEPGPEGGGK-NH2; cysteine pairing not given here) [DX1141] | –
– | – | – | – | – | 33 | 28 | 44 | 0 | 25 | Ac-VCVYTTWGELIWCDNHEPGPEGGGK-NH2 (not fully specified (bridges); printed as Ac-VCVYTTWGELIWCDNHEPGPEGGGK-NH2; cysteine pairing not given here) [DX1067] | –
– | – | – | – | – | 73 | 63 | 71 | 0 | 45 | Ac-EHMCVYTTWGELIWCDNHEPGPEGGGK-NH2 (not fully specified (bridges); printed as Ac-EHMCVYTTWGELIWCDNHEPGPEGGGK-NH2; cysteine pairing not given here) [DX1063] | –
– | – | – | – | – | 77 | 68 | 74 | 2 | 51 | Ac-CVYTTWGELIWCDNHEPGPEGGGK-NH2 (not fully specified (bridges); printed as Ac-CVYTTWGELIWCDNHEPGPEGGGK-NH2; cysteine pairing not given here) [DX1069] | Binding properties / profile relative to parent peptide ([3]; batch filterplate, human IgG and subtypes): almost identical to those of DX249
– | – | – | – | – | 33 | 25 | 36 | 0 | 21 | Ac-[Nle]CVYTTWGELIWCDNHEPGPEGGGK-NH2 (not fully specified (bridges); printed as Ac-[Nle]CVYTTWGELIWCDNHEPGPEGGGK-NH2; cysteine pairing not given here) [DX1068] | –
88 | 84 | 81 | 0 | 61 | – | – | – | – | – | Ac-ECSRDWSGALVWCAGHEPGPEGGGK-NH2 (not fully specified (bridges); printed as Ac-ECSRDWSGALVWCAGHEPGPEGGGK-NH2; cysteine pairing not given here) [DX1144] | –
– | – | – | – | – | 70 | 63 | 73 | 0 | 39 | Ac-ACVYTTWGELIWCDNHEPGPEGGGK-NH2 (not fully specified (bridges); printed as Ac-ACVYTTWGELIWCDNHEPGPEGGGK-NH2; cysteine pairing not given here) [DX1064] | –
– | – | – | – | – | 73 | 63 | 73 | 0 | 49 | Ac-DHMCVYTTWGELIWCDNHEPGPEGGGK-NH2 (not fully specified (bridges); printed as Ac-DHMCVYTTWGELIWCDNHEPGPEGGGK-NH2; cysteine pairing not given here) [DX1062] | –
